In data set [1] the test system is A431-CCK2R(+) tumor-bearing mice. The settings on record: 4 h after injection.
Experimental: Five mice bearing A431-CCK2R(+) xenografts on their shoulders were used for SPECT/CT imaging. Three out of five mice received Entresto by gavage 30 min prior to radiotracer injection. All five animals were injected with a bolus containing [^111In]In-SG4 (100 μL, 5 MBq of HPLC isolated preparation) via the tail vein and were euthanized 4 h later. […] The SPECT system was based on monolithic NaI detectors attached to SiPMs, with a 0.6 mm intrinsic resolution. The CT system was based on a structured CMOS detector of CsI with pixels of 75 µm and operated between 35 and 80 kVp, 10–500 µA tube current, with a 33 µm fixed focal spot size. For SPECT scans, a 60 min duration protocol was applied, based on the injected activity. A CT scan followed after each SPECT scan, according to a General Purpose protocol under 50 kVp for co-registration purposes. The MLEM reconstruction method was applied for the reconstruction of SPECT images with a 250 µm voxel size and 500 iterations. The ISRA reconstruction method with a 100 µm voxel size was applied for the reconstruction of CT images. Images were exported and post-processed on VivoQuant software, version 4.0 (Invicro, Boston, MA, USA). A smoothing median filter (0.6 mm, spherical window) was applied to the images and for consistency purposes, the bladder was removed.
Data set [2] deals with SCID mice bearing double A431-CCK2R(+/−) xenografts (CCK2R). As to the kind of experiment: in vivo. The settings on record: SCID mice with double A431-CCK2R(+/−) xenografts, 4 h pi, 50 kBq/10 pmol peptide iv, γ-counter, mean ± SD, n = 4; for Biodistribution, Stomach: stomach emptied of contents; for Biodistribution, Intestines: intestines not emptied. As for the experimental part:
(§1) Inocula of A431-CCK2R(+) and A431-CCK2R(−) cells (1.5 × 10^7 cells and 1.2 × 10^7 cells respectively, in 150 µL normal saline) were subcutaneously injected in the right and left flanks respectively, of 12 male SCID mice; in 5 more mice, a A431-CCK2R(+) cell suspension (1.5 × 10^7 cells in 150 µL normal saline) was subcutaneously injected instead on the neck of the animals. […] All animals were kept under aseptic conditions during this period and until biodistribution or imaging was conducted.
(§2) For the biodistribution study, animals in groups of 4 received a 100 μL bolus of [^99mTc]Tc-DB4 via the tail vein (200 kBq, corresponding to 10 pmol total peptide in saline/EtOH 9/1 v/v—GRPR-tumor-bearing mice) or [^111In]In-SG4 (50 kBq, 10 pmol total peptide—twin A431-CCK2R(+)/A431-CCK2R(−) tumor-bearing mice) co-injected either with injection solution (100 μL; control) or with LBQ657 solution (100 µL injection solution containing 10 µg LBQ657). In additional sets of animals, mice received, by gavage, a single Entresto dose (12 mg/[…] per animal, prepared as described in Section 2.1.1) 30 min prior to injection of the respective radiotracer together with vehicle (100 μL; Entresto group), or with a [Tyr^4]BBN solution (100 μg in 100 μL vehicle; block group). Mice were euthanized at 4 h pi and dissected. Samples of blood, tumors and organs of interest were collected, weighed and measured for radioactivity in the γ-counter (an automated well-type gamma counter with a NaI(Tl) 3′’ crystal, Canberra Packard Auto-Gamma 5000 series instrument). Intestines and stomach were not emptied of their contents; exceptionally, in the case of [^111In]In-SG4-injected animals, stomachs were emptied of their contents. Data was calculated as percent injected activity per gram tissue (%IA/g) with the aid of standard solutions and represented as mean values ± standard deviation (SD), n = 4.

The nature of the next data set: in vivo. The settings on record: male, SCID, mouse, iv, 10 pmol, total radioactivity. As for the experimental part: as §1, §2
Setting [3] is: Entresto: 12 mg/200 mL by gavage 30 min before, co-injected with vehicle.
[4] abbreviates: LBQ657: co-injected with 10 µg LBQ657.

Non-standard residues stand in square brackets, D forms with d. Residues, ends and D or L forms follow the SMILES beside them. *: point of attachment. DOTA = O=C(O)CN1CCN(CC(=O)O)CCN(CC(=O)*)CCN(CC(=O)O)CC1; Nle = CCCC[C@H](N)C(=O)O

What is called tissue uptake is the share of the injected amount in each gram of the tissue. Regarding `CCCC[C@H](NC(=O)[C@H](Cc1c[nH]c2ccccc12)NC(=O)CNC(=O)[C@H](Cc1ccc(O)cc1)NC(=O)[C@H](C)NC(=O)[C@@H](CCC(=O)O)NC(=O)CN1CCN(CC(=O)O)CCN(CC(=O)O)CCN(CC(=O)O)CC1)C(=O)N[C@@H](CC(=O)O)C(=O)N[C@@H](Cc1ccccc1)C(N)=O` [[^111In]In-SG4, metal not drawn] ({DOTA}-[dE]AYGW[Nle]DF-NH2), in data set [1] (Entresto orally 30 min in advance (3 mice) vs controls (2 mice), A431-CCK2R(+) tumors, 5 MBq iv), the “change of tumor uptake on SPECT/CT, Entresto-treated vs controls” value is on record as “notable increase in the tumor uptake”. Besides, the “accumulation in A431-CCK2R(+) xenografts on SPECT/CT images” value in data set [1] (SCID mice bearing A431-CCK2R(+) tumors, 5 MBq HPLC-isolated iv, five mice) is recorded as “Significant accumulation”. Also, the entries for the “Biodistribution, Stomach” value in data set [2] (Controls: co-injected with vehicle), in data set [2] (setting [3]) and in data set [2] (setting [4]) were 1.29 ± 0.25 %IA/g, 2.86 ± 0.53 %IA/g and 3.10 ± 0.41 %IA/g, respectively. The “Biodistribution, Femur” value in data set [2] (setting [3]) was found to be 0.14 ± 0.03 %IA/g. Also, the “Biodistribution, Kidneys” value in data set [2] (setting [3]) is recorded as 2.40 ± 0.61 %IA/g. Also, the “Biodistribution, Pancreas” value in data set [2] (setting [3]) was determined as 0.34 ± 0.14 %IA/g. Also, the “Biodistribution, Spleen” value in data set [2] (setting [3]) is recorded as 0.22 ± 0.05 %IA/g. In addition, in data set [2] (setting [3]), the “Biodistribution, Tumor (+) (A431-CCK2R(+))” value was 9.61 ± 1.70 %IA/g. For the same compound, the “Biodistribution, Tumor (–) (A431-CCK2R(−))” value in data set [2] (setting [3]) is 0.40 ± 0.23 %IA/g. Further, the “Biodistribution, Intestines” value in data set [2] (setting [3]) is reported as 0.34 ± 0.07 %IA/g; in data set [2] (setting [4]), 0.49 ± 0.12 %IA/g. The tissue uptake at 4 h in the data set “in vivo” (A431-CCK2R(+) tumor) is 3.07 ± 0.87 %ID/g; in the data set “in vivo” (A431-CCK2R(−) tumor), 0.28 ± 0.21 %ID/g; in “in vivo” (blood) it was 0.03 ± 0.02 %ID/g; in “in vivo” (femur) it was 0.1 ± 0.03 %ID/g; in “in vivo” (heart), 0.05 ± 0.02 %ID/g; in the data set “in vivo” (kidneys) it was 2.1 ± 0.49 %ID/g. The tissue uptake at 4 h in “in vivo” (liver) was determined as 0.15 ± 0.02 %ID/g; in “in vivo” (lungs), 0.06 ± 0.01 %ID/g; in “in vivo” (muscle), 0.03 ± 0.02 %ID/g; in “in vivo” (pancreas), 0.08 ± 0.09 %ID/g; in the data set “in vivo” (spleen), 0.11 ± 0.04 %ID/g.

The record behind these values is article PMC7760338, “One Step Closer to Clinical Translation: Enhanced Tumor Targeting of [^99mTc]Tc-DB4 and [^111In]In-SG4 in Mice Treated with Entresto” (Pharmaceutics, 2020).
